B1: Azoarcus group I ribozyme (parent)
chain: GUGCCUUGCGCCGGGAAACCACGCAAGGGAUGGUGUCAAAUUCGGCGAAACCUAAGCGCCCGCCCGGGCGUAUGGCAACGCCGAGCCAAGCUUCGGCGCCUGCGCCGAUGAAGGUGUAGAGACUAGACGGCACCCACCUAAGGCAAACGCUAUGGUGAAGGCAUAGUCCAGGGAGUGGCGAAAGUCACACAAACCGG

Variants of B1 are the subject of this data set. In words: reverse-splicing fitness (ratio to wild type); higher = more active; in vitro selection; Mg2+ level not given. The method, boiled down: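 An in vitro group I ribozyme library with randomized positions was T7-transcribed and gel-purified. In triplicate, 10 pmol RNA in EPPS pH 7.5 was reacted with 50 pmoles of a 30-nt RNA substrate for 1 h at 37 °C across several added MgCl2 levels (1–48 mM), then stopped with EDTA. Products were reverse transcribed from a substrate-complementary primer, PCR-amplified and sequenced (HiSeq 4000). Fitness is a variant's read proportion after selection over that before, normalised to wild type.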
Turning to A120U A145U C169A U176G, the reverse-splicing fitness worked out at 0.00158. Regarding A120U A145U C169A U176A, the reverse-splicing fitness was 0.00339. With A120U A145U C169A U176C the figure was 0.00507; with A145G C150G C169U, 0.0734. With A145G C150G C169A the figure was 0.0272; with A145G C150G C169G, 0.0446. To A120U C150G C169G belongs 0.0252; to A120U C150G C169A, 0.00834; to A120U C150G C169U, 0.0339. On to A120U C150G C169U U176A, for which the reverse-splicing fitness was 0.00472. Regarding A120U C150G C169U U176G, the reverse-splicing fitness was found to be 0.00276. For the variant A120U C150G C169U U176C, the reverse-splicing fitness is 0.0154. For A145C C150A C169U U176G, the reverse-splicing fitness was found to be 0.00589. To A145C C150A C169U U176C belongs 0.0218. To A145C C150A C169U U176A belongs 0.023; to A145C U176C, 0.843. To A145C U176A belongs 0.767; to A145C U176G, 0.411; to A120U A145C C150G U176C, 0.121. A120U A145C C150G U176G: the reverse-splicing fitness was determined as 0.0278. To A120U A145C C150G U176A belongs 0.132; to A145C C150G C169A, 0.0221. To A145C C150G C169G belongs 0.0445. To A145C C150G C169U belongs 0.0739; to A120U C150A C169A U176A, 0.00376. A120U C150A C169A U176C: the reverse-splicing fitness is 0.00333.

Consider A120U C150A C169A U176G, for which the reverse-splicing fitness came out at 0.00205. With A145C C150U U176G the figure was 0.308. For A145C C150U U176A, the reverse-splicing fitness came to 0.613. To A145C C150U U176C belongs 0.596; to A145C C150U C169G U176A, 0.0403. With A145C C150U C169G U176C the figure was 0.0444. To A145C C150U C169G U176G belongs 0.00658; to A120U C150U C169G, 0.15. As for A120U C150U C169U, the reverse-splicing fitness stood at 0.203. With A120U C150U C169A the figure was 0.0111; with A120U C150A C169G U176A, 0.0106; with A120U C150A C169G U176C, 0.0141. With A120U C150A C169G U176G the figure was 0.00249; with A145G C150A C169A, 0.0304; with A145G C150A C169U, 0.0924. A145G C150A C169G: the reverse-splicing fitness was found to be 0.0594. With A120U A145G C150G C169G the figure was 0.0353. Take A120U A145G C150G C169U: the reverse-splicing fitness was 0.0537. To A120U A145G C150G C169A belongs 0.00998.

For A145G C150G C169G U176C, the reverse-splicing fitness was 0.0156. A145G C150G C169G U176G: the reverse-splicing fitness was 0.00608. With A145G C150G C169G U176A the figure was 0.014; with A120U C150A C169U U176A, 0.0178; with A120U C150A C169U U176C, 0.0195. With A120U C150A C169U U176G the figure was 0.00432.

Turning to A145C C150G C169U U176G, the reverse-splicing fitness is 0.00549.

For the variant A145C C150G C169U U176A, the reverse-splicing fitness was determined as 0.0183. To A145C C150G C169U U176C belongs 0.0427; to A120U A145G U176G, 0.342; to A120U A145G U176A, 0.704.

Regarding A120U A145G U176C, the reverse-splicing fitness was 0.685. To A120U A145G C169A U176A belongs 0.00474.

Consider A120U A145G C169A U176G, for which the reverse-splicing fitness is 0.00148. To A120U A145G C169A U176C belongs 0.00664. Take A120U A145G C150G C169G U176G: the reverse-splicing fitness was 0.00354.

For the variant A120U A145G C150G C169G U176C, the reverse-splicing fitness is 0.00575.

On to A120U A145G C150G C169G U176A, for which the reverse-splicing fitness came to 0.00914. With A145C C150G C169A U176A the figure was 0.00984; with A145C C150G C169A U176G, 0.00491. With A145C C150G C169A U176C the figure was 0.0118. With A120U A145C C150U C169U U176A the figure was 0.0309; with A120U A145C C150U C169U U176G, 0.00705; with A120U A145C C150U C169U U176C, 0.0258. As for A145C C150A U176C, the reverse-splicing fitness was determined as 0.206. With A145C C150A U176A the figure was 0.217; with A145C C150A U176G, 0.14. With A120U C150A the figure was 0.245. As for A120U C150U, the reverse-splicing fitness was determined as 0.774. With A120U C150G the figure was 0.206; with A120U A145G C150U C169G U176G, 0.00281; with A120U A145G C150U C169G U176C, 0.063.

For the variant A120U A145G C150U C169G U176A, the reverse-splicing fitness came out at 0.0289. In the case of A120U A145G C150A C169A U176C, the reverse-splicing fitness was determined as 0.00372.

Take A120U A145G C150A C169A U176A: the reverse-splicing fitness was 0.00533. With A120U A145G C150A C169A U176G the figure was 0.00241; with A120U A145G C150U C169U U176G, 0.00649; with A120U A145G C150U C169U U176A, 0.0753.

Source of the values: the RNAGym collection of RNA variant scans (doi:10.1093/molbev/msab373).
